Results published in patent US20120220015A1 (BIOLEX THERAPEUTICS, published 2012).

Legend:
Experiment in all cases: cell-based or functional assay
[1] = target: Lemna-derived plasmin from transgenic line BAP01-B2-230 (derived from mature human plasminogen with the … (human, UniProt P00747 97-580)); P00747 581-810, Asn-289 of mature plasminogen (Asn-212 of plasmin) partly N-glycosylated)
[2] = target: human reference plasmin (commercial, human-derived plasmin) (human)
[3] = target: Lemna-derived plasmin from transgenic line BAP12-B2-150 (aglycosylated plasmin derived from mature human … (human, UniProt P00747 97-580; P00747 581-810)
Sequence of Lemna-derived plasmin from transgenic line BAP12-B2-150 (aglycosylated plasmin derived from mature human … (P00747 97-580 N308D, form in doubt, chain 1 of 2): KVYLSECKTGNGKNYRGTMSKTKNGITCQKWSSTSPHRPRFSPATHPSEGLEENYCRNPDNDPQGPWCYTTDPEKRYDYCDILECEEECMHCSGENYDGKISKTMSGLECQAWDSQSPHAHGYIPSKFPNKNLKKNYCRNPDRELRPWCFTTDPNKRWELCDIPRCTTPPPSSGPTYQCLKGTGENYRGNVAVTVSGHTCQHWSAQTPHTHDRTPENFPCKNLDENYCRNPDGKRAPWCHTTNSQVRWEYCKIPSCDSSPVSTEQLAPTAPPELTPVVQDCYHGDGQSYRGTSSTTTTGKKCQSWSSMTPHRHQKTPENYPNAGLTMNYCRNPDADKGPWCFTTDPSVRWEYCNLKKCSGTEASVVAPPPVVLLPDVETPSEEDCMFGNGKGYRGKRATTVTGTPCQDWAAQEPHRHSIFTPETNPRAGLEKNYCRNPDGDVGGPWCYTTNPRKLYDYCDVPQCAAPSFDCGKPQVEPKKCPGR
Sequence of Lemna-derived plasmin from transgenic line BAP12-B2-150 (aglycosylated plasmin derived from mature human … (P00747 581-810 I701V, form in doubt, chain 2 of 2): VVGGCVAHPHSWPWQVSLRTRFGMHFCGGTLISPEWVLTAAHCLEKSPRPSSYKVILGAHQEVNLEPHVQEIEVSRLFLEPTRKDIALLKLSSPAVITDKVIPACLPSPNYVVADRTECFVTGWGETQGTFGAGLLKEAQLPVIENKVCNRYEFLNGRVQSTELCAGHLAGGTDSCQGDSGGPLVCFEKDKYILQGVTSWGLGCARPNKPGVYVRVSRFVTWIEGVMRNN

Sequence of Lemna-derived plasmin from transgenic line BAP01-B2-230 (derived from mature human plasminogen with the … (P00747 97-580, form in doubt, chain 1 of 2): as the sequence (P00747 97-580 N308D, form in doubt, chain 1 of 2) above, with D212N counted along it
Sequence of Lemna-derived plasmin from transgenic line BAP01-B2-230 (derived from mature human plasminogen with the … (P00747 581-810 I701V, form in doubt, chain 2 of 2): as the sequence (P00747 581-810 I701V, form in doubt, chain 2 of 2) above
Sequence of human reference plasmin (commercial, human-derived plasmin) (human) (P00747 20-580, chain 1 of 2): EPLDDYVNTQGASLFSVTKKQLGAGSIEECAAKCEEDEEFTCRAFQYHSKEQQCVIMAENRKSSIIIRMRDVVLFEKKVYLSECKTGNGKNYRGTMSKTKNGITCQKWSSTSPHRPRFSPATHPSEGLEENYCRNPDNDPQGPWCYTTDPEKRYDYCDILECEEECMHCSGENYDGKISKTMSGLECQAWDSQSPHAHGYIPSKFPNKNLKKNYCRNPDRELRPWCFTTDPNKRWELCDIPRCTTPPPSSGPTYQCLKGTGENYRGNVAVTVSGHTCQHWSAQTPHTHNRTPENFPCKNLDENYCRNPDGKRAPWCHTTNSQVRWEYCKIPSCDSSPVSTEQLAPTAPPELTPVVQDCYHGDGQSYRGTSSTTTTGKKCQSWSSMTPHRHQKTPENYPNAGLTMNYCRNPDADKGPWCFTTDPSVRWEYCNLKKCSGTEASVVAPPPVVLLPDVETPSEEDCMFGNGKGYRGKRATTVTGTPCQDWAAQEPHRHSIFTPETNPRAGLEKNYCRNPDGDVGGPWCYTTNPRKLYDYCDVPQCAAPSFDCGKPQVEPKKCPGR
Sequence of human reference plasmin (commercial, human-derived plasmin) (human) (P00747 581-810, chain 2 of 2): as the sequence (P00747 581-810 I701V, form in doubt, chain 2 of 2) above, with V121I counted along it

percent of plasmin inhibited, no pre-incubation with α2-AP, molar ratio of 1:1 (S-2403 chromogenic assay) [1]: 60%
percent of plasmin inhibited, no pre-incubation with α2-AP, molar ratio of 1:1 (S-2403 chromogenic assay) [2]: ~90%
percent of plasmin inhibited, no pre-incubation with α2-AP, molar ratio of 1:1 (S-2403 chromogenic assay) [3]: 60%
B1: α2-antiplasmin (other, UniProt P08697 40-491, looked up)
chain: NQEQVSPLTLLKLGNQEPGGQTALKSPPGVCSRDPTPEQTHRLARAMMAFTADLFSLVAQTSTCPNLILSPLSVALALSHLALGAQNHTLQRLQQVLHAGSGPCLPHLLSRLCQDLGPGAFRLAARMYLQKGFPIKEDFLEQSEQLFGAKPVSLTGKQEDDLANINQWVKEATEGKIQEFLSGLPEDTVLLLLNAIHFQGFWRNKFDPSLTQRDSFHLDEQFTVPVEMMQARTYPLRWFLLEQPEIQVAHFPFKNNMSFVVLVPTHFEWNVSQVLANLSWDTLHPPLVWERPTKVRLPKLYLKHQMDLVATLSQLGLQELFQAPDLRGISEQSLVVSGVQHQSTLELSEVGVEAAAATSIAMSRMSLSSFSVNRPFLFFIFEDTTGLPLFVGSVRNPNPSAPRELKEQQDSPGNKDFLQSLKGFPRGDKLFGPDLKLVPPMEEDYPQFGSPK
